Assay results published in the supplement of paper PMC9112550, “Optimization of the antimicrobial peptide Bac7 by deep mutational scanning” (BMC Biology, 2022).

System: Escherichia coli TOP10
Assay: shrunken log2 fold change of peptide-encoding DNA abundance (4.5 h post-induction vs induction); higher = less antimicrobial activity (less host growth inhibition)
Conditions: time post-induction: 4.5 h; library: site-saturation at positions 5, 18, 19, 20
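Further: peptides expressed intracellularly from a pBAD plasmid library in pooled LB shake-flask culture, induced with 0.3% L-arabinose, DNA abundance read by NGS, three biological replicates, DESeq2 with apeglm shrinkage.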

| Sequence | shrunken log2 fold change |
| --- | --- |
| RRIRFRPPRLPRPRPRPWYYPRP | -0.735 |
| RRIRFRPPRLPRPRPRPYAEPRP | -0.823 |
| RRIRFRPPRLPRPRPRPYCLPRP | -0.341 |
| RRIRFRPPRLPRPRPRPYCTPRP | -0.873 |
| RRIRFRPPRLPRPRPRPYDYPRP | -0.107 |
| RRIRFRPPRLPRPRPRPYELPRP | 0.0447 |
| RRIRFRPPRLPRPRPRPYFFPRP | -0.544 |
| RRIRFRPPRLPRPRPRPYFHPRP | -1.66 |
| RRIRFRPPRLPRPRPRPYFKPRP | -0.848 |
| RRIRFRPPRLPRPRPRPYLFPRP | 0.425 |
| RRIRFRPPRLPRPRPRPYMMPRP | -0.34 |
| RRIRFRPPRLPRPRPRPYNNPRP | -1.15 |
| RRIRFRPPRLPRPRPRPYNTPRP | -1.1 |
| RRIRFRPPRLPRPRPRPYNYPRP | -1.03 |
| RRIRFRPPRLPRPRPRPYVCPRP | -0.301 |
| RRIRFRPPRLPRPRPRPYWHPRP | -0.754 |
| RRIRFRPPRLPRPRPRPYYEPRP | -0.231 |
| RRIRFRPPRLPRPRPRPYYSPRP | -0.228 |
| RRIRGRPPRLPRPRPRPAAEPRP | 2.52 |
| RRIRGRPPRLPRPRPRPAAHPRP | 0.807 |
| RRIRGRPPRLPRPRPRPACGPRP | 0.967 |
| RRIRGRPPRLPRPRPRPACQPRP | 0.883 |
| RRIRGRPPRLPRPRPRPAFGPRP | 0.476 |
| RRIRGRPPRLPRPRPRPAFKPRP | 0.177 |
| RRIRGRPPRLPRPRPRPAGQPRP | 0.727 |

| Sequence | shrunken log2 fold change |
| --- | --- |
| RRIRGRPPRLPRPRPRPAGTPRP | 0.752 |
| RRIRGRPPRLPRPRPRPAHQPRP | 0.65 |
| RRIRGRPPRLPRPRPRPAKEPRP | 0.414 |
| RRIRGRPPRLPRPRPRPAKGPRP | 0.0624 |
| RRIRGRPPRLPRPRPRPAKLPRP | 0.154 |
| RRIRGRPPRLPRPRPRPAKNPRP | 0.554 |
| RRIRGRPPRLPRPRPRPAKTPRP | 0.121 |
| RRIRGRPPRLPRPRPRPALTPRP | 0.874 |
| RRIRGRPPRLPRPRPRPAMFPRP | 0.455 |
| RRIRGRPPRLPRPRPRPAMGPRP | 0.541 |
| RRIRGRPPRLPRPRPRPANLPRP | 0.166 |
| RRIRGRPPRLPRPRPRPANRPRP | 0.0838 |
| RRIRGRPPRLPRPRPRPAPDPRP | 1.07 |
| RRIRGRPPRLPRPRPRPAQVPRP | 0.274 |
| RRIRGRPPRLPRPRPRPARGPRP | 0.915 |
| RRIRGRPPRLPRPRPRPASSPRP | 0.653 |
| RRIRGRPPRLPRPRPRPATMPRP | 0.44 |
| RRIRGRPPRLPRPRPRPATTPRP | 0.871 |
| RRIRGRPPRLPRPRPRPAVAPRP | 0.813 |
| RRIRGRPPRLPRPRPRPAVSPRP | 0.573 |
| RRIRGRPPRLPRPRPRPAWIPRP | 0.347 |
| RRIRGRPPRLPRPRPRPAWSPRP | 0.929 |
| RRIRGRPPRLPRPRPRPCAQPRP | 1.07 |
| RRIRGRPPRLPRPRPRPCASPRP | 0.557 |
| RRIRGRPPRLPRPRPRPCCKPRP | -0.108 |

| Sequence | shrunken log2 fold change |
| --- | --- |
| RRIRGRPPRLPRPRPRPCDDPRP | 1.24 |
| RRIRGRPPRLPRPRPRPCEPPRP | 0.241 |
| RRIRGRPPRLPRPRPRPCFEPRP | 0.629 |
| RRIRGRPPRLPRPRPRPCFIPRP | 0.0559 |
| RRIRGRPPRLPRPRPRPCFRPRP | 0.0644 |
| RRIRGRPPRLPRPRPRPCFTPRP | 0.334 |
| RRIRGRPPRLPRPRPRPCGNPRP | 0.255 |
| RRIRGRPPRLPRPRPRPCHQPRP | -0.0488 |
| RRIRGRPPRLPRPRPRPCIGPRP | -0.143 |
| RRIRGRPPRLPRPRPRPCKMPRP | -0.0103 |
| RRIRGRPPRLPRPRPRPCNDPRP | 0.376 |
| RRIRGRPPRLPRPRPRPCQHPRP | -0.153 |
| RRIRGRPPRLPRPRPRPCRGPRP | -0.0404 |
| RRIRGRPPRLPRPRPRPCRWPRP | 0.611 |
| RRIRGRPPRLPRPRPRPCSCPRP | 0.105 |
| RRIRGRPPRLPRPRPRPCSLPRP | 0.237 |
| RRIRGRPPRLPRPRPRPCVGPRP | 0.729 |
| RRIRGRPPRLPRPRPRPCVPPRP | 0.307 |
| RRIRGRPPRLPRPRPRPCWEPRP | -0.000921 |
| RRIRGRPPRLPRPRPRPCYWPRP | 0.553 |
| RRIRGRPPRLPRPRPRPDAEPRP | 3.37 |
| RRIRGRPPRLPRPRPRPDCWPRP | 1.58 |
| RRIRGRPPRLPRPRPRPDDDPRP | 0.0442 |
| RRIRGRPPRLPRPRPRPDDIPRP | 0.027 |
| RRIRGRPPRLPRPRPRPDEWPRP | 0.757 |

| Sequence | shrunken log2 fold change |
| --- | --- |
| RRIRGRPPRLPRPRPRPDGHPRP | 0.471 |
| RRIRGRPPRLPRPRPRPDGSPRP | 0.85 |
| RRIRGRPPRLPRPRPRPDHQPRP | 0.12 |
| RRIRGRPPRLPRPRPRPDKDPRP | 0.602 |
| RRIRGRPPRLPRPRPRPDKSPRP | 0.18 |
| RRIRGRPPRLPRPRPRPDLEPRP | 0.288 |
| RRIRGRPPRLPRPRPRPDLRPRP | 0.0067 |
| RRIRGRPPRLPRPRPRPDMTPRP | 3.09 |
| RRIRGRPPRLPRPRPRPDPAPRP | 1.06 |
| RRIRGRPPRLPRPRPRPDPHPRP | 0.507 |
| RRIRGRPPRLPRPRPRPDPLPRP | 0.072 |
| RRIRGRPPRLPRPRPRPDQHPRP | 0.271 |
| RRIRGRPPRLPRPRPRPDRGPRP | -0.123 |
| RRIRGRPPRLPRPRPRPDSDPRP | 0.0289 |
| RRIRGRPPRLPRPRPRPDSTPRP | 0.213 |
| RRIRGRPPRLPRPRPRPDTHPRP | -0.156 |
| RRIRGRPPRLPRPRPRPDTNPRP | 0.199 |
| RRIRGRPPRLPRPRPRPDTRPRP | 0.162 |
| RRIRGRPPRLPRPRPRPDTWPRP | 0.465 |
| RRIRGRPPRLPRPRPRPDTYPRP | 0.241 |
| RRIRGRPPRLPRPRPRPDWSPRP | 0.203 |
| RRIRGRPPRLPRPRPRPDYAPRP | -0.0775 |
| RRIRGRPPRLPRPRPRPDYIPRP | -0.144 |
| RRIRGRPPRLPRPRPRPDYQPRP | -0.418 |
| RRIRGRPPRLPRPRPRPEADPRP | 1 |

| Sequence | shrunken log2 fold change |
| --- | --- |
| RRIRGRPPRLPRPRPRPEAWPRP | 1.91 |
| RRIRGRPPRLPRPRPRPEEKPRP | 1.66 |
| RRIRGRPPRLPRPRPRPEESPRP | 1.82 |
| RRIRGRPPRLPRPRPRPEFEPRP | 0.612 |
| RRIRGRPPRLPRPRPRPEGEPRP | 1.97 |
| RRIRGRPPRLPRPRPRPEGPPRP | -0.0198 |
| RRIRGRPPRLPRPRPRPEGSPRP | 1.28 |
| RRIRGRPPRLPRPRPRPEHFPRP | 0.00955 |
| RRIRGRPPRLPRPRPRPEHWPRP | 0.378 |
| RRIRGRPPRLPRPRPRPEIMPRP | 1.33 |
| RRIRGRPPRLPRPRPRPEMNPRP | 0.999 |
| RRIRGRPPRLPRPRPRPEMVPRP | 2.43 |
| RRIRGRPPRLPRPRPRPEPHPRP | 1.09 |
| RRIRGRPPRLPRPRPRPEQIPRP | 0.438 |
| RRIRGRPPRLPRPRPRPEQNPRP | 1.31 |
| RRIRGRPPRLPRPRPRPEQSPRP | 1.05 |
| RRIRGRPPRLPRPRPRPESAPRP | 1.67 |
| RRIRGRPPRLPRPRPRPESQPRP | 1.57 |
| RRIRGRPPRLPRPRPRPESYPRP | 0.0402 |
| RRIRGRPPRLPRPRPRPETEPRP | 2.25 |
| RRIRGRPPRLPRPRPRPETFPRP | 1.08 |
| RRIRGRPPRLPRPRPRPEWDPRP | 1.56 |
| RRIRGRPPRLPRPRPRPEWIPRP | 0.142 |
| RRIRGRPPRLPRPRPRPEWQPRP | 0.783 |
| RRIRGRPPRLPRPRPRPEYFPRP | 0.11 |

| Sequence | shrunken log2 fold change |
| --- | --- |
| RRIRGRPPRLPRPRPRPFAQPRP | 0.456 |
| RRIRGRPPRLPRPRPRPFAVPRP | 0.396 |
| RRIRGRPPRLPRPRPRPFCRPRP | 0.326 |
| RRIRGRPPRLPRPRPRPFDGPRP | 0.366 |
| RRIRGRPPRLPRPRPRPFDPPRP | 0.14 |
| RRIRGRPPRLPRPRPRPFEEPRP | 0.231 |
| RRIRGRPPRLPRPRPRPFETPRP | 2.8 |
| RRIRGRPPRLPRPRPRPFFMPRP | 0.374 |
| RRIRGRPPRLPRPRPRPFGHPRP | -0.164 |
| RRIRGRPPRLPRPRPRPFHWPRP | 0.134 |
| RRIRGRPPRLPRPRPRPFIEPRP | 0.364 |
| RRIRGRPPRLPRPRPRPFIGPRP | -0.258 |
| RRIRGRPPRLPRPRPRPFISPRP | 0.183 |
| RRIRGRPPRLPRPRPRPFKPPRP | -0.0354 |
| RRIRGRPPRLPRPRPRPFKRPRP | 0.301 |
| RRIRGRPPRLPRPRPRPFLCPRP | 0.231 |
| RRIRGRPPRLPRPRPRPFNFPRP | 0.0755 |
| RRIRGRPPRLPRPRPRPFNLPRP | -0.643 |
| RRIRGRPPRLPRPRPRPFNNPRP | -0.206 |
| RRIRGRPPRLPRPRPRPFPDPRP | 0.0778 |
| RRIRGRPPRLPRPRPRPFPTPRP | 0.63 |
| RRIRGRPPRLPRPRPRPFQGPRP | -0.0101 |
| RRIRGRPPRLPRPRPRPFQTPRP | 0.013 |
| RRIRGRPPRLPRPRPRPFQWPRP | -0.0859 |
| RRIRGRPPRLPRPRPRPFRSPRP | -0.599 |
